From IntAct's records for PubMed 21398607

Molecular target: wasp_mouse Was (UniProt P70315)
Sequence (P70315 whole entry): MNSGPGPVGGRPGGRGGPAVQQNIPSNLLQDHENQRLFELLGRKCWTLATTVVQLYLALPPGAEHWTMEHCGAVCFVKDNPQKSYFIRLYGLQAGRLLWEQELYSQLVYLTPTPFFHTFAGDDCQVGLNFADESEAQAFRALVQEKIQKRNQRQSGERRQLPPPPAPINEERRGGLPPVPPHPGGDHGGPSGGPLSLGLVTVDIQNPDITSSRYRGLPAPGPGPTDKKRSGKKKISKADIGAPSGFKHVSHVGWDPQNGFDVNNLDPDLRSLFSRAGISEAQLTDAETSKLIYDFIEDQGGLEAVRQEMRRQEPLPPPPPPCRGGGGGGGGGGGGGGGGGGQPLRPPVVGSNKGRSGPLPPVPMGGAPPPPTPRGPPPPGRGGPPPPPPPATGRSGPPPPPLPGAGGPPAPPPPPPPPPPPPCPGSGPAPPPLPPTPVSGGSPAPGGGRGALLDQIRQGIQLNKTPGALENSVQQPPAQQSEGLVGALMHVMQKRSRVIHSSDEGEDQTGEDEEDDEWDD

Sequence of WAS/WASL-interacting protein family member 1 (Homo sapiens), O43516 S436A (O43516 whole entry S436A): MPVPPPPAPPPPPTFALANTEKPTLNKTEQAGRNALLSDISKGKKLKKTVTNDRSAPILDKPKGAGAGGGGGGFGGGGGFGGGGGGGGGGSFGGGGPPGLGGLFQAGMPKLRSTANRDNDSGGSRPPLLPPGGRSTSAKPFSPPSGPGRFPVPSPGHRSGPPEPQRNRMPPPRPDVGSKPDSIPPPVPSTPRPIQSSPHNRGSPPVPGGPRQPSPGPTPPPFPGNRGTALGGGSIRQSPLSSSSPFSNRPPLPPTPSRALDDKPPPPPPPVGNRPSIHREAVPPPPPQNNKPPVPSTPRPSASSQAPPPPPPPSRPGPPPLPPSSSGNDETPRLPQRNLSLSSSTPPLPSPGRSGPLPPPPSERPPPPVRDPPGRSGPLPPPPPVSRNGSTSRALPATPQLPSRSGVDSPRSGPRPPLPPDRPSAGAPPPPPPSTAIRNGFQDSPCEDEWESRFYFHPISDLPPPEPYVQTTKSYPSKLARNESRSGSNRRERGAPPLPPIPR

**Q.** Which “effect of a mutation on the interaction” value does the source give for “WAS/WASL-interacting protein family member 1 (Homo sapiens), O43516 S436A” here?
**A.** The value was “disrupting interaction”.
